These are literature values, as cited in article PMC5615855.

As a reminder, the Kd is a measure of binding affinity in units of concentration.

This series deals with N2B (HEB) N2B (Homo sapiens) (UniProt Q99081).

Take “NHR2 (AML1-ETO) NHR2 (from UniProt Q06455)”: the Kd was 356 µM.
